Results on one molecule are retold here after patent US20260055211A1 (GLYCOERA, published 2026).

Assay [1] concerns the target T1, recombinant anti-PR3 antibody CLB12.8.
T1 construct: Mouse monoclonal anti-PR3 antibody (detected with anti-mouse IgG); recombinant form used in SPR; also called anti-PR3 antibody clone CLB12.8; anti-PR3 mouse antibody
As to the kind of experiment: SPR (Biacore 8K), single cycle kinetics, CLB12.8 immobilized, m1 as analyte, 1:1 binding model. The text has this: (§1) Methods: Surface plasmon resonance (SPR) was used to measure binding kinetics (i.e., ka, kd, KD, equilibrium) of the PR3 glycoengineered polypeptide analyte to a recombinant CLB12.8 ligand (anti-PR3 antibody) or a biotinylated recombinant human ASGPR1 ligand (Acro Biosystems). Data was collected with a Biocore 8K. Either recombinant CLB12.8 or ASGPR1 was immobilized to the surface of a sensor chip and sequential injections of increasing concentrations of the PR3 glycoengineered polypeptide were performed in a single cycle kinetics experiment. ASGPR1 assays included 2 mM CaCl2 in the running buffer. Data were fit with a 1:1 binding model for CLB12.8 and with a heterogenous binding model for ASGPR1 using the fitting software provided by Cytiva.
On the technique in general: In SPR one partner is held on a chip, and binding of the other changes the refractive index at the surface.

Assay [2] addresses T2, biotinylated recombinant human ASGPR1 (Acro Biosystems) (human, UniProt P07306 62-291, biotinylated).
T2 construct: Bought reagent
T2 sequence (looked up): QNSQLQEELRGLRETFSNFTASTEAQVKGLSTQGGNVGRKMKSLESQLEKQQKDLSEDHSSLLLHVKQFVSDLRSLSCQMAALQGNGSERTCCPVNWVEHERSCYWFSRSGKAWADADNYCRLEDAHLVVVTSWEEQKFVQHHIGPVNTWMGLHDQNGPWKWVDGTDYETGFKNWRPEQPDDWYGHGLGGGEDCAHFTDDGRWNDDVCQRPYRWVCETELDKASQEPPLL
As to the kind of experiment: SPR (Biacore 8K), single cycle kinetics, biotinylated ASGPR1 immobilized, 2 mM CaCl2, heterogenous binding model, KD2; pre-steady state KD2 (kinetic fit, second site).
Excerpt: as §1

Assay [3] addresses T1, recombinant anti-PR3 antibody CLB12.8. Description: SPR (Biacore 8K), single cycle kinetics, CLB12.8 immobilized, steady state fit.
Excerpt: as §1

The target of assay [4] is T2, biotinylated recombinant human ASGPR1 …. As to the kind of experiment: SPR (Biacore 8K), single cycle kinetics, biotinylated ASGPR1 immobilized, m1 as analyte, 2 mM CaCl2, heterogenous binding model; ka1, first component of the heterogenous binding model.
Excerpt: as §1

The target is the same in assay [5]. Description: SPR (Biacore 8K), single cycle kinetics, biotinylated ASGPR1 immobilized, m1 as analyte, 2 mM CaCl2, heterogenous binding model; kd1, first component of the heterogenous binding model.
Excerpt: as §1

Assay [6] has the same target. Description: SPR (Biacore 8K), single cycle kinetics, ASGPR1 immobilized, 2 mM CaCl2, heterogeneous binding model; column ka2 (second component).
Excerpt: as §1

In assay [7] the target is T1, recombinant anti-PR3 antibody CLB12.8. As to the kind of experiment: SPR (Biacore 8K), single cycle kinetics, CLB12.8 immobilized, kinetic (pre-steady state) fit, 1:1 binding model.
Excerpt: as §1

The target in assay [8] is T2, biotinylated recombinant human ASGPR1 …. As to the kind of experiment: SPR (Biacore 8K), single cycle kinetics, biotinylated ASGPR1 immobilized, 2 mM CaCl2, steady state fit; steady state KD (equilibrium fit).
Excerpt: as §1

The target is the same in assay [9]. Description: SPR (Biacore 8K), single cycle kinetics, ASGPR1 immobilized, 2 mM CaCl2, heterogeneous binding model; column kd2 (second component).
Excerpt: as §1

For assay [10] the target is unchanged. Description: SPR (Biacore 8K), single cycle kinetics, biotinylated ASGPR1 immobilized, 2 mM CaCl2, heterogenous binding model, KD1; pre-steady state KD1 (kinetic fit, first site).
Excerpt: as §1

B1: PR3 glycoengineered polypeptide (other)
chain: IVGGHEAQPHSRPYMASLQMRGNPGSHFCGGTLIHPSFVLTAAHCLRDIPQRLVNVVLGAHNVRTQEPTQQHFSVAQVFLNNYDAENKLNDVLLIQLSSPANLSASVATVQLPQQDQPVPHGTQCLAMGWGRVGAHDPPAQVLQELNVTVVTAACRPHNICTFVPRRKAGICFGDAGGPLICDGIIQGIDSFVIWGCATRAAPDFFTRVALYVDWIRSTLRRVEAKGRPGGGGANSTAPAPAPAHHHHHHHHHH
modifications: N-glycans (81.5% A2GalNAc2, biantennary GalNAc-terminated) at the native sites N129 and N174 (numbering of UniProt P24158) and at the Asn of the C-terminal glycotag; 80-90% of molecules fully …
notes: Secreted from glycoengineered Leishmania tarentolae (cell line stCGP05880) and purified by IMAC; also called exemplary PR3 glycoengineered polypeptide; glycoengineered polypeptide of PR3
As usually defined, the koff is the rate constant with which the complex falls apart. In general, kon refers to the rate constant with which the complex forms. In general, Kd refers to the free concentration of one partner at which half of the binding sites on the other are occupied at equilibrium, for simple one-to-one binding. Regarding B1, the off-rate constant (koff) is 0.0754 s⁻¹ in assay [1], 7.54 s⁻¹ in assay [5] and 6.16e-05 s⁻¹ in [9]. In addition, the kon in assay [1] was found to be 305000 M⁻¹ s⁻¹; in assay [4], 1.61e+08 M⁻¹ s⁻¹; in assay [6], 873 M⁻¹ s⁻¹. Also, the dissociation constant (Kd) in assay [2] worked out at 70.6 nM; in assay [3], 32.4 nM; in assay [7] it was 24.7 nM; in assay [8], 364 nM; in assay [10], 46.9 nM.
